From patent publication US20140087995A1 (published 2014)
One block for each binder: values may come before it. Numbered stars: 1 amine (or outer) side, 2 acyl side, 3 side chain; on linkers, the order of the positions; unused ones are H or OH. Bridge positions count the residues as written; N and C are the ends. Side chains are listed from the residue outwards. Ends that are not written are not given here. * marks the point of attachment. C20 diacid = O=C(O)CCCCCCCCCCCCCCCCCCC(=O)*; γGlu = O=C(O)[C@H](CCC(=O)[*:2])N[*:1]; AEEA = NCCOCCOCC(=O)O

Assays:
[1] = target: T1, human calcitonin receptor (human, UniProt P30988 25-474); assay: ratio of IC50 at hCTR to IC50 at the human amylin receptor (reference)
T1 construct: whole, on cells; also called hCTR; hCT
T1 sequence (looked up): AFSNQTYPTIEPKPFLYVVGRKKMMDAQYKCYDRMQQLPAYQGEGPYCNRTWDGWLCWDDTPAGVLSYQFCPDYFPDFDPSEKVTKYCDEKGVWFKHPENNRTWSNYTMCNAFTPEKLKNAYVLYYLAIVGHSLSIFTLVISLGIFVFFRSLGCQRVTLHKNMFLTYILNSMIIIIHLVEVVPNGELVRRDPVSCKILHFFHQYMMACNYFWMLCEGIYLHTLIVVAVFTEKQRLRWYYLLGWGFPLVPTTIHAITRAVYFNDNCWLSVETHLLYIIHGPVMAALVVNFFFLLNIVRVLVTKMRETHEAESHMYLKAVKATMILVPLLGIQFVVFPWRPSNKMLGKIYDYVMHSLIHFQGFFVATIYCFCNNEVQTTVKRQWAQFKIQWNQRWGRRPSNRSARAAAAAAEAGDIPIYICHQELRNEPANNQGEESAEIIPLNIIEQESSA
Procedure, shortened: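 Competition binding by SPA with cell membranes (35 ng/μL) and SPA beads in 50 mM Hepes pH 7.4 with 1 mM CaCl2, 5 mM MgCl2, 0.1% OA and 0.02% Tween20. Incubated 120 min at 25 °C with shaking, then counted.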

[2] = target: T1, human calcitonin receptor; assay: SPA competition binding, membranes with human calcitonin receptor, displacement of 125I-calcitonin (Assay VII)
Procedure, shortened: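 BHK hCTR membranes 35 ng/μL + SPA beads 0.05 mg/well; buffer 50 mM Hepes pH 7.4, 1 mM CaCl2, 5 mM MgCl₂, 0.1% OA, 0.02% Tween20. 120 min, 25° C., shaking. Scintillation count; IC50 by one-site binding competition.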

B3: N^ε1-[2-[2-[2-[[(4S)-4-carboxy-4-(19-carboxynonadecanoylamino)butanoyl]amino]ethoxy]ethoxy]acetyl]-[Arg17,Pro21,Pro27,Glu35]-h-amylin (peptide)
peptide: K([AEEA-γGlu-C20 diacid])CNTATCATQRLANFLRHSSPNFGAIPSSTNVGSETY-NH2
modifications: disulfide 2-7; N-terminus assumed
SMILES: CC[C@H](C)[C@H](NC(=O)[C@H](C)NC(=O)CNC(=O)[C@H](Cc1ccccc1)NC(=O)[C@H](CC(N)=O)NC(=O)[C@@H]1CCCN1C(=O)[C@H](CO)NC(=O)[C@H](CO)NC(=O)[C@H](Cc1c[nH]cn1)NC(=O)[C@H](CCCNC(=N)N)NC(=O)[C@H](CC(C)C)NC(=O)[C@H](Cc1ccccc1)NC(=O)[C@H](CC(N)=O)NC(=O)[C@H](C)NC(=O)[C@H](CC(C)C)NC(=O)[C@H](CCCNC(=N)N)NC(=O)[C@H](CCC(N)=O)NC(=O)[C@@H](NC(=O)[C@H](C)NC(=O)[C@@H]1CSSC[C@H](NC(=O)[C@@H](N)CCCCNC(=O)COCCOCCNC(=O)CC[C@H](NC(=O)CCCCCCCCCCCCCCCCCCC(=O)O)C(=O)O)C(=O)N[C@@H](CC(N)=O)C(=O)N[C@@H]([C@@H](C)O)C(=O)N[C@@H](C)C(=O)N[C@@H]([C@@H](C)O)C(=O)N1)[C@@H](C)O)C(=O)N1CCC[C@H]1C(=O)N[C@@H](CO)C(=O)N[C@@H](CO)C(=O)N[C@H](C(=O)N[C@@H](CC(N)=O)C(=O)N[C@H](C(=O)NCC(=O)N[C@@H](CO)C(=O)N[C@@H](CCC(=O)O)C(=O)N[C@H](C(=O)N[C@@H](Cc1ccc(O)cc1)C(N)=O)[C@@H](C)O)C(C)C)[C@@H](C)O
notes: also called compound 26
Ratio hCT/hAmylin binding [1]: 47.5 | IC50 [2]: 25.3 nM

B4: N^ε1-[(4S)-4-carboxy-4-(19-carboxynonadecanoylamino)butanoyl]-[Arg17,Pro21,Pro27,Lys35]-h-amylin (peptide)
peptide: K([γGlu-C20 diacid])CNTATCATQRLANFLRHSSPNFGAIPSSTNVGSKTY-NH2
modifications: disulfide 2-7; N-terminus assumed
SMILES: CC[C@H](C)[C@H](NC(=O)[C@H](C)NC(=O)CNC(=O)[C@H](Cc1ccccc1)NC(=O)[C@H](CC(N)=O)NC(=O)[C@@H]1CCCN1C(=O)[C@H](CO)NC(=O)[C@H](CO)NC(=O)[C@H](Cc1c[nH]cn1)NC(=O)[C@H](CCCNC(=N)N)NC(=O)[C@H](CC(C)C)NC(=O)[C@H](Cc1ccccc1)NC(=O)[C@H](CC(N)=O)NC(=O)[C@H](C)NC(=O)[C@H](CC(C)C)NC(=O)[C@H](CCCNC(=N)N)NC(=O)[C@H](CCC(N)=O)NC(=O)[C@@H](NC(=O)[C@H](C)NC(=O)[C@@H]1CSSC[C@H](NC(=O)[C@@H](N)CCCCNC(=O)CC[C@H](NC(=O)CCCCCCCCCCCCCCCCCCC(=O)O)C(=O)O)C(=O)N[C@@H](CC(N)=O)C(=O)N[C@@H]([C@@H](C)O)C(=O)N[C@@H](C)C(=O)N[C@@H]([C@@H](C)O)C(=O)N1)[C@@H](C)O)C(=O)N1CCC[C@H]1C(=O)N[C@@H](CO)C(=O)N[C@@H](CO)C(=O)N[C@H](C(=O)N[C@@H](CC(N)=O)C(=O)N[C@H](C(=O)NCC(=O)N[C@@H](CO)C(=O)N[C@@H](CCCCN)C(=O)N[C@H](C(=O)N[C@@H](Cc1ccc(O)cc1)C(N)=O)[C@@H](C)O)C(C)C)[C@@H](C)O
notes: also called compound 35
Ratio hCT/hAmylin binding [1]: 50.3 | IC50 [2]: 48.8 nM

B5: N^ε1-[2-[2-[2-[[(4S)-4-carboxy-4-(19-carboxynonadecanoylamino)butanoyl]amino]ethoxy]ethoxy]acetyl]-[Arg17,Pro21,Pro27]-h-amylin (peptide)
peptide: K([AEEA-γGlu-C20 diacid])CNTATCATQRLANFLRHSSPNFGAIPSSTNVGSNTY-NH2
modifications: disulfide 2-7; N-terminus assumed
SMILES: CC[C@H](C)[C@H](NC(=O)[C@H](C)NC(=O)CNC(=O)[C@H](Cc1ccccc1)NC(=O)[C@H](CC(N)=O)NC(=O)[C@@H]1CCCN1C(=O)[C@H](CO)NC(=O)[C@H](CO)NC(=O)[C@H](Cc1c[nH]cn1)NC(=O)[C@H](CCCNC(=N)N)NC(=O)[C@H](CC(C)C)NC(=O)[C@H](Cc1ccccc1)NC(=O)[C@H](CC(N)=O)NC(=O)[C@H](C)NC(=O)[C@H](CC(C)C)NC(=O)[C@H](CCCNC(=N)N)NC(=O)[C@H](CCC(N)=O)NC(=O)[C@@H](NC(=O)[C@H](C)NC(=O)[C@@H]1CSSC[C@H](NC(=O)[C@@H](N)CCCCNC(=O)COCCOCCNC(=O)CC[C@H](NC(=O)CCCCCCCCCCCCCCCCCCC(=O)O)C(=O)O)C(=O)N[C@@H](CC(N)=O)C(=O)N[C@@H]([C@@H](C)O)C(=O)N[C@@H](C)C(=O)N[C@@H]([C@@H](C)O)C(=O)N1)[C@@H](C)O)C(=O)N1CCC[C@H]1C(=O)N[C@@H](CO)C(=O)N[C@@H](CO)C(=O)N[C@H](C(=O)N[C@@H](CC(N)=O)C(=O)N[C@H](C(=O)NCC(=O)N[C@@H](CO)C(=O)N[C@@H](CC(N)=O)C(=O)N[C@H](C(=O)N[C@@H](Cc1ccc(O)cc1)C(N)=O)[C@@H](C)O)C(C)C)[C@@H](C)O
notes: also called compound 41
Ratio hCT/hAmylin binding [1]: 49.9 | IC50 [2]: 21.3 nM

Continued by falling IC50 [2], values first:

Ratio hCT/hAmylin binding [1]: 56.5 | IC50 [2]: 43.4 nM
B1: N^ε1-[2-[2-[2-[[2-[2-[2-[[(4S)-4-carboxy-4-(19-carboxynonadecanoylamino)butanoyl]amino]ethoxy]ethoxy]acetyl]amino]ethoxy]ethoxy]acetyl]-[Arg17,Pro21,Pro27,Glu35 … (peptide)
peptide: K([AEEA-AEEA-γGlu-C20 diacid])CNTATCATQRLANFLRHSSPNFGAIPSSTNVGSETY-NH2
modifications: disulfide 2-7; N-terminus assumed
SMILES: CC[C@H](C)[C@H](NC(=O)[C@H](C)NC(=O)CNC(=O)[C@H](Cc1ccccc1)NC(=O)[C@H](CC(N)=O)NC(=O)[C@@H]1CCCN1C(=O)[C@H](CO)NC(=O)[C@H](CO)NC(=O)[C@H](Cc1c[nH]cn1)NC(=O)[C@H](CCCNC(=N)N)NC(=O)[C@H](CC(C)C)NC(=O)[C@H](Cc1ccccc1)NC(=O)[C@H](CC(N)=O)NC(=O)[C@H](C)NC(=O)[C@H](CC(C)C)NC(=O)[C@H](CCCNC(=N)N)NC(=O)[C@H](CCC(N)=O)NC(=O)[C@@H](NC(=O)[C@H](C)NC(=O)[C@@H]1CSSC[C@H](NC(=O)[C@@H](N)CCCCNC(=O)COCCOCCNC(=O)COCCOCCNC(=O)CC[C@H](NC(=O)CCCCCCCCCCCCCCCCCCC(=O)O)C(=O)O)C(=O)N[C@@H](CC(N)=O)C(=O)N[C@@H]([C@@H](C)O)C(=O)N[C@@H](C)C(=O)N[C@@H]([C@@H](C)O)C(=O)N1)[C@@H](C)O)C(=O)N1CCC[C@H]1C(=O)N[C@@H](CO)C(=O)N[C@@H](CO)C(=O)N[C@H](C(=O)N[C@@H](CC(N)=O)C(=O)N[C@H](C(=O)NCC(=O)N[C@@H](CO)C(=O)N[C@@H](CCC(=O)O)C(=O)N[C@H](C(=O)N[C@@H](Cc1ccc(O)cc1)C(N)=O)[C@@H](C)O)C(C)C)[C@@H](C)O
notes: also called compound 25

Ratio hCT/hAmylin binding [1]: 41.3 | IC50 [2]: 34.5 nM
B2: N^ε1-[(4S)-4-carboxy-4-(19-carboxynonadecanoylamino)butanoyl]-[Arg17,Pro21,Pro27,Glu35]-h-amylin (peptide)
peptide: K([γGlu-C20 diacid])CNTATCATQRLANFLRHSSPNFGAIPSSTNVGSETY-NH2
modifications: disulfide 2-7; N-terminus assumed
SMILES: CC[C@H](C)[C@H](NC(=O)[C@H](C)NC(=O)CNC(=O)[C@H](Cc1ccccc1)NC(=O)[C@H](CC(N)=O)NC(=O)[C@@H]1CCCN1C(=O)[C@H](CO)NC(=O)[C@H](CO)NC(=O)[C@H](Cc1c[nH]cn1)NC(=O)[C@H](CCCNC(=N)N)NC(=O)[C@H](CC(C)C)NC(=O)[C@H](Cc1ccccc1)NC(=O)[C@H](CC(N)=O)NC(=O)[C@H](C)NC(=O)[C@H](CC(C)C)NC(=O)[C@H](CCCNC(=N)N)NC(=O)[C@H](CCC(N)=O)NC(=O)[C@@H](NC(=O)[C@H](C)NC(=O)[C@@H]1CSSC[C@H](NC(=O)[C@@H](N)CCCCNC(=O)CC[C@H](NC(=O)CCCCCCCCCCCCCCCCCCC(=O)O)C(=O)O)C(=O)N[C@@H](CC(N)=O)C(=O)N[C@@H]([C@@H](C)O)C(=O)N[C@@H](C)C(=O)N[C@@H]([C@@H](C)O)C(=O)N1)[C@@H](C)O)C(=O)N1CCC[C@H]1C(=O)N[C@@H](CO)C(=O)N[C@@H](CO)C(=O)N[C@H](C(=O)N[C@@H](CC(N)=O)C(=O)N[C@H](C(=O)NCC(=O)N[C@@H](CO)C(=O)N[C@@H](CCC(=O)O)C(=O)N[C@H](C(=O)N[C@@H](Cc1ccc(O)cc1)C(N)=O)[C@@H](C)O)C(C)C)[C@@H](C)O
notes: also called compound 27

Ratio hCT/hAmylin binding [1]: 10.8 | IC50 [2]: 12.9 nM
B6: N^ε1-[2-[2-[2-[[(4S)-4-carboxy-4-(19-carboxynonadecanoylamino)butanoyl]amino]ethoxy]ethoxy]acetyl]-[Arg17,Pro21,Pro27,Pro31]-h-amylin (peptide)
peptide: K([AEEA-γGlu-C20 diacid])CNTATCATQRLANFLRHSSPNFGAIPSSTPVGSNTY-NH2
modifications: disulfide 2-7; N-terminus assumed
SMILES: CC[C@H](C)[C@H](NC(=O)[C@H](C)NC(=O)CNC(=O)[C@H](Cc1ccccc1)NC(=O)[C@H](CC(N)=O)NC(=O)[C@@H]1CCCN1C(=O)[C@H](CO)NC(=O)[C@H](CO)NC(=O)[C@H](Cc1c[nH]cn1)NC(=O)[C@H](CCCNC(=N)N)NC(=O)[C@H](CC(C)C)NC(=O)[C@H](Cc1ccccc1)NC(=O)[C@H](CC(N)=O)NC(=O)[C@H](C)NC(=O)[C@H](CC(C)C)NC(=O)[C@H](CCCNC(=N)N)NC(=O)[C@H](CCC(N)=O)NC(=O)[C@@H](NC(=O)[C@H](C)NC(=O)[C@@H]1CSSC[C@H](NC(=O)[C@@H](N)CCCCNC(=O)COCCOCCNC(=O)CC[C@H](NC(=O)CCCCCCCCCCCCCCCCCCC(=O)O)C(=O)O)C(=O)N[C@@H](CC(N)=O)C(=O)N[C@@H]([C@@H](C)O)C(=O)N[C@@H](C)C(=O)N[C@@H]([C@@H](C)O)C(=O)N1)[C@@H](C)O)C(=O)N1CCC[C@H]1C(=O)N[C@@H](CO)C(=O)N[C@@H](CO)C(=O)N[C@H](C(=O)N1CCC[C@H]1C(=O)N[C@H](C(=O)NCC(=O)N[C@@H](CO)C(=O)N[C@@H](CC(N)=O)C(=O)N[C@H](C(=O)N[C@@H](Cc1ccc(O)cc1)C(N)=O)[C@@H](C)O)C(C)C)[C@@H](C)O
notes: also called compound 49
